Patent publication US9504759B2, “Surface modified proteinaceous spherical particles and uses thereof” (BAR-ILAN UNIVERSITY, priority 2011, dated 2016)
Square brackets hold non-standard residues; d marks the D form. Ends that are not written are not given here. Peptide text beside a SMILES is read from it. Nle = CCCC[C@H](N)C(=O)O

Columns and labels:
PC12 cells = experiment: Reduction of Aβ-induced toxicity in PC12 cells (MTT assay); assay type: cell-based, rat; conditions: for effect on toxicity of aggregated Aβ in PC12 cells (cell viability, MTT): agent:Aβ40 4:1 (2 nmol : 0.5 nmol), aged 48 hours, cells 24 hours, FIG. 2B
Description: Prior to the addition of the SMOPs or soluble peptides to the cells, the extent of Aβ40 aggregation in each sample was determined by ThT assay as described above. On the day of the experiment, the medium was replaced with fresh medium (50 μl) and the aged samples (50 μ) were then diluted by a factor of two in the medium. Control wells received PBS (50 μl) only. Cells were incubated for an additional 24 hours and cell viability was then determined by the MTT assay as described above. Each experiment was performed in quadruplicate and repeated three times.

Aβ40 [1] = target: T1, Aβ40 (Homo sapiens, UniProt P05067); experiment: TEM analysis of samples taken from the ThT assay; assay type: biochemical; conditions: 72 hour incubation
T1 construct: incubating fresh monomerized (non-aggregated) solutions of Aβ40

FITC-Aβ40 = target: T2, FITC-Aβ40 (Homo sapiens, UniProt P05067); experiment: Direct in vitro binding assay with FITC-Aβ40 (fluorescent microscopy, FACS); conditions: soluble FITC-Aβ40 in PBS at 37° C., after extensive washing; fluorescent microscopy and FACS
T2 construct: incubated with soluble FITC-Aβ40
Description: Binding of KLVFF (SEQ ID NO 1)-modified SMOP to Aβ was assessed using a fluorescent modified Aβ known as FITC-Aβ40 (fluorescein isothiocyanate) in a direct in vitro assay. In order to confirm that the conjugated KLVFF (SEQ ID NO 1) fragments on SMOPs preserved their recognition capability to bind full length Aβ following the sonochemical process and SMOP generation, KLVFF (SEQ ID NO 1)-modified SMOPs were incubated with soluble FITC-Aβ40 (25 μ, 0.5 nanomolar, nM) in PBS at 37° C. for different periods under constant agitation (750 revolutions per minute (rpm)). At each time point, samples were diluted with cold PBS and the microspheres were washed twice with cold PBS. Ten thousand particles were then analyzed immediately by FACS.
As controls, proteinaceous SMOP without surface modification (prepared as in example 1A, without the addition of a KLVFF (SEQ ID NO 1) peptide) (naked BSA spheres) were prepared. FVKLF-modified SMOP was also prepared as a control, as in Example 1C.

[2] = Administration of SMOP to rats to demonstrate safety; assay type: in vivo; conditions: intravenously via tail vein, from 100 μl to highest amount 200 µL, observed 2 weeks; BSA:KLVFF 1:500
Description: SMOPs modified with KLVFF (SEQ ID NO 1) (ratio of BSA:KLVFF (SEQ ID NO 1) of 1:500) were used in vivo for toxicological studies. Rats weighing about 250 g each were injected intravenously, via their tail vein, with increasing amounts of the SMOP starting from 100 μl and following an up-down protocol based on the outcome of the initial dose.

Aβ40 [3] = target: T1, Aβ40; assay type: biochemical; conditions: for effect on rate (kinetics) of Aβ aggregation: ThT assay monitored for three days of incubation; for effect on Aβ aggregation (ThT fluorescence): molar ratio of Aβ to peptide or peptide equivalent 1:2, 1:4, 1:6.5, SMOP BSA:KLVFF 1:500, three days, FIG. 2A
Description: In addition, an indirect assay (ThT [Thioflavin T] assay) was performed as follows. […] The fluorescence is measured and correlated to presence of amyloid plaque formations. Agents which bind and inhibit amyloid plaque formation decrease fluorescence of ThT. The inhibitory activity of KLVFF (SEQ ID NO 1)-modified SMOPs on Aβ40 aggregation was determined in black 96-well flat-bottom plates by incubating fresh monomerized (non-aggregated) solutions of Aβ40 (33 micromolar (μM), 15 μl)with different preparations of the SMOPs (25 μl, Table 1) in PBS. PBS was added to reach a volume of 50 μl, giving a final concentration of 10 μM for Aβ40. […] The plates were sealed with aluminum foil and incubated while shaking at 750 rpm at 37° C. for 72 hours to induce aggregation. Following the incubation, a solution of ThT (24 μM, 150 μl) in glycine buffer (50 millimolar (mM), pH 8.5) was added to each well and the fluorescence of amyloid-bound ThT was immediately measured using a plate reader (Infinite M200, Tecan, Switzerland) at excitation and emission wavelengths of 430 and 492 nm, respectively. The ThT solution was freshly prepared by diluting a ThT stock solution (1 mM, in water) with glycine buffer (50 mM, pH 8.5). Experiments were performed in quadruplicate.
To evaluate the inhibitory effect of KLVFF (SEQ ID NO 1)-modified SMOPs on Aβ aggregation and kinetics, soluble Aβ40 (0.5 nanomol, nmol) was incubated in the absence and presence of different preparations of the SMOPs. Amyloid plaque formation was then monitored by a ThT assay for three days of incubation.

[4] = system: murine microglia (BV-2) cells; experiment: Phagocytosis by murine microglia (BV-2) cells (confocal microscopy, SEM, FACS); assay type: cell-based; conditions: LPS-treated cells, 30 minutes exposure

T1 sequence (P05067 672-711 limits assumed): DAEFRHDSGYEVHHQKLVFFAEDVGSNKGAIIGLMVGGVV
T2 sequence (P05067 672-711 limits assumed): as above

Row | Compound | effect on toxicity of aggregated Aβ in PC12 cells (cell viability, MTT) (PC12 cells) | formation of Aβ40 fibrils (TEM) (Aβ40 [1]) | FITC-Aβ40 accumulated on the surface of the particles (fluorescent signal) (FITC-Aβ40) | effect on rate (kinetics) of Aβ aggregation (Aβ40 [3]) | effect on Aβ aggregation (ThT fluorescence) (Aβ40 [3]) | effect on uptake of aggregated FITC-Aβ by BV-2 cells [4] | also measured
1 | KLVFF-modified SMOP: oil-filled spherical BSA particles with KLVFFC-NH2 (SEQ ID NO 3) attached via disulfide bonds, prepared by sonication | significantly reduced | completely arrests the formation of fibrils | intense fluorescent signals | dramatically slowed the rate of Aβ aggregation | significantly decreased the aggregation of Aβ in a dose-dependent manner |  | immediate toxicity in rats [2]: did not cause immediate toxicity
2 | pertussis toxin [PTX] |  |  |  |  |  | reduced the uptake of the aggregated Aβ | 
3 | fucoidan |  |  |  |  |  | reduced the uptake of the aggregated Aβ | 
4 | CCCC[C@@H]1NC(=O)[C@@H](CC(C)C)NC(=O)[C@H](CCCCN)NC(=O)[C@@H](CO)NC(=O)[C@H](Cc2c[nH]cn2)NC(=O)[C@@H](Cc2c[nH]c3ccccc23)NC1=O [[lJwHsK], Cyclo-D-leucine-L-noreucine-D-tryptophan-L-histidine-D-serine-L-lysine] (cyclo(K[dL][Nle][dW]H[dS])) |  |  |  |  |  |  | reduction of Aβ-induced toxicity in PC12 cells (cyclic peptide) (PC12 cells): effective in reducing Aβ-induced toxicity; effect on amyloid aggregation / formation (in words) (Aβ40 [3]): drastic effect on amyloid aggregation
5 | KLVFF-NH2 | little or no effect on toxicity |  |  |  |  |  | 
6 | FVKLF-modified SMOPs: SMOPs formed with scrambled peptide FVKLFC-NH2 (SEQ ID NO 4); comparator in in vitro studies |  | no inhibitory effect | significantly lower amount of FITC-Aβ40 was accumulated | no or little effect | no or little effect |  | 
